# Test results as given in patent US20210040184A1.
# Changes are numbered by the printed parent chain.
# B1: Germ6 (antibody, V domains shown)
# VH: ADLVQSGAVVKKPGDSVRVSCEAQGYRFPDYIIHWIRRAPGQGPEWMGWMNPMGGQVNIPWKFQGRVSMTRDTSIETAYLDLRGLKSDDTAVYYCVRDRSNGSGKRFESSNWFLDLWGRGTAVTVQS
# VL: QSALTQPRSVSGSPGQSVTISCTGTHNLVSWCQHQPGRAPKLLIYDFNKRPSGVPDRFSGSGSGGTASLTISGLQDEDDAEYFCWAYEAFGGGTKLTVL
# B2: Hydro2 (antibody, V domains shown)
# VH: B1 VH with V19I, W61Q, Y79F, V125I
# VL: B1 VL with G12A, S72T, E77D, A89N
# B3: CysCV (antibody, V domains shown)
# VH: B1 VH with V19I, Y79F, V125I
# VL: B1 VL with G12A, C32V, S72T, E77D
# B4: Germ17 (antibody, V domains shown)
# VH: QVDLVQSGAVVKKPGDSVRVSCEAQGYRFPDYIIHWIRRAPGQGPEWMGWMNPMGGQVNIPWKFQGRVSMTRDTSIETAYMDLRGLRSDDTAVYYCVRDRSNGSGKRFESSNWFLDLWGRGTLVTVSS
# VL: B1 VL with Q35H, R38K, L43M, D76A, D79E
# B5: Germ23 (antibody, V domains shown)
# VH: B4 VH with D3Q, V10E, D16A, R19K, Q25S, D82E
# VL: B1 VL with Q35H, R38K, L43M, D76A, D79E
# B6: NglycoND (antibody, V domains shown)
# VH: B1 VH with V19I, Y79F, N101D, V125I
# VL: B1 VL with G12A, S72T, E77D
# B7: Germ12 (antibody, V domains shown)
# VH: B4 VH
# VL: B1 VL
# B8: Germ18 (antibody, V domains shown)
# VH: B4 VH with D3Q, V10E, D16A, R19K, Q25S, D82E
# VL: B1 VL
# B9: NglycoSA (antibody, V domains shown)
# VH: B1 VH with V19I, Y79F, S103A, V125I
# VL: B1 VL with G12A, S72T, E77D
# B10: CysCA (antibody, V domains shown)
# VH: B1 VH with V19I, Y79F, V125I
# VL: B1 VL with G12A, C32A, S72T, E77D
# B11: Germ12_NglycoSA_CysCA (antibody, V domains shown)
# VH: B4 VH with S104A
# VL: B1 VL with C32A
# B12: NglycoNDplus6 (antibody, V domains shown)
# VH: B1 VH with V19I, R27T, Y79F, S100G, N101D, G104R, K105R, R106H, E108D, V125I
# VL: B1 VL with G12A, S72T, E77D
# B13: NVS49-L1A2 (antibody, V domains shown)
# VH: B1 VH with V19I, Y79F, V125I
# VL: B1 VL with G12A, S72T, E77D
# Biological target: Clade B BaL gp120 protein (HIV-1 Clade B, BaL)
# Assay: BLI (Octet), IgG on anti-hIgG Fc sensor, gp120 analyte, 1:1 fit
Binder,Kd [nM],fold (KD vs average of 4 runs of L1A2) [fold],koff [s⁻¹],kon [M⁻¹ s⁻¹]
B1,0.92,1.7,7.11e-05,77100
B2,0.96,1.77,7.18e-05,74700
B3,0.82,1.52,6.4e-05,77900
B4,0.65,1.2,5.15e-05,79300
B5,0.97,1.79,7.66e-05,79100
B6,18.7,34.5,0.00128,68400
B7,0.88,1.62,7.09e-05,80800
B8,0.98,1.81,7.09e-05,72200
B9,0.84,1.54,6.12e-05,73300
B10,1.1,2.03,8.01e-05,71900
B11,0.63,1.16,4.92e-05,78300
B12,11.3,20.9,0.0006,53300

# Biological target: Clade C DU172.17 gp120 protein (HIV-1 Clade C, DU172.17)
# Assay: as above
Binder,Kd [nM],fold (KD vs average of 4 runs of L1A2) [fold],koff [s⁻¹],kon [M⁻¹ s⁻¹]
B1,19.3,0.76,0.000466,24100
B2,55.5,2.18,0.000974,17600
B3,26.7,1.05,0.000495,18500
B4,17.5,0.69,0.000331,18900
B5,22.4,0.88,0.000368,16400
B6,368,14.5,0.0183,49700
B7,21.5,0.85,0.000438,20400
B8,21.3,0.84,0.000415,19500
B9,18.4,0.72,0.000303,16500
B10,19.6,0.77,0.000446,22800
B11,18.1,0.71,0.000337,18600

# Biological target: Clade B BaL gp120 protein (HIV-1 Clade B, BaL)
# Assay: BLI (Octet), IgG on anti-hIgG Fc sensor, gp120 analyte, 1:1 fit; average of 4 runs
Binder,Kd [nM],fold (KD vs average of 4 runs of L1A2) [fold],koff [s⁻¹],kon [M⁻¹ s⁻¹]
B13,0.54,1,4.41e-05,81300

# Biological target: Clade C DU172.17 gp120 protein (HIV-1 Clade C, DU172.17)
# Assay: as above
Binder,Kd [nM],fold (KD vs average of 4 runs of L1A2) [fold],koff [s⁻¹],kon [M⁻¹ s⁻¹]
B13,25.4,1,0.000526,21100
